Experimental data as given in the nanobody polyreactivity screen of Harvey et al. (2022).

experiment: yeast display, Sf9 membrane polyspecificity reagent, FACS + sequencing; frameworks hold sequencing errors
Summary of the method: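 After 36–48 hours of galactose induction, yeast (Saccharomyces cerevisiae BJ5465) displaying a synthetic nanobody library were stained at 4 °C for 1 hour with 10% biotinylated, detergent-solubilized Sf9 membrane reagent. Streptavidin microbeads enriched the stained cells before FACS sorting into low and high (top ~1%) gates on anti-HA and streptavidin fluorescence. Each clone's polyreactivity label reflects its gate of origin.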

| Sequence | polyreactivity (PSR sort gate) |
| --- | --- |
| QVQLVESGGGLVQAGGSLRLSCAASGSIFRVYALGWSRQAPGKERELVAAISSSGGSTYYADSVKGRFTISRDNAKNTVYLQMNSLKPEDTAVYYCAAEYDGPYTWVDYYYHYGYWGQGTQVTVSS | low polyreactivity |
| QVQLVESGGGLVQAGGSLRLSCAASGSIFRVYAMGRYRQAPGKEREFVAAISYSTGSTYADSVKGRFTISRDNAKNTVYLQMNSLKPEDTAVYYCNARLRYGSRDEYDYWGQGTQVTVSS | low polyreactivity |
| QVQLVESGGGLVQAGGSLRLSCAASGSIFRVYAMGWYRQAPGKEREFVAAITRRGTRTYYADSVKGRFTISRDNAKNTDYLQMNSLKPEDTAVYYCAAYFTDGLYEYWGQGTQVTVSS | low polyreactivity |
| QVQLVESGGGLVQAGGSLRLSCAASGSIFRVYAMGWYRQAPGKEREFVAAITRRGTRTYYADSVKGRFTISRDNAKNTVYLQMNSLKPEDTAVYYCAAYFTEGLYEYWGQGTQVTLSS | low polyreactivity |
| QVQLVESGGGLVQAGGSLRLSCAASGSIFRVYAMGWYRQAPGKERELVAVITWTGGITYYADSVKGRFTISRDNAKNTVYLQMNSLKPEDTAVYYCNADLLTFAIKAPTGFYYWGQGTQVTVSS | high polyreactivity |
| QVQLVESGGGLVQAGGSLRLSCAASGSIFRVYGMGWHRQAPGKERELVAAITWSGGSTYYADSVKGRFTISRDNAKNTVYLQMNSLKPEDTAVSYCAARARPRYYRPPYDYWGQGTQVTVSS | high polyreactivity |
| QVQLVESGGGLVQAGGSLRLSCAASGSIFRYNAMGWYRQAPGKERELVAAISGRGTSTYYADSVKGRFTISRDNAKNTVYLQMNSLKPEDTAVYYCAAVYFRTFLVEYYYWGQGTQVTVSS | high polyreactivity |
| QVQLVESGGGLVQAGGSLRLSCAASGSIFRYNAMGWYRQAPGKERELVAAITSGDSTYYADSVKGRFTISRDNAKNTVYLQMNSLKPEDTAVYYCAADLRYIYWSYYYWGQGTQVTVSS | low polyreactivity |
| QVQLVESGGGLVQAGGSLRLSCAASGSIFRYNTMGWYRPAPGKERELVATITRRGGSTYYADSVKGRFTISRDNAKNTVYLQMNSLKPEDTAVYYCIADNFGGPYNYWGQGTQVTVSS | low polyreactivity |
| QVQLVESGGGLVQAGGSLRLSCAASGSIFRYYAMGAYRQAPGKARELVAAISIRGGRTYYADSVKGRFTISRDNAKNTVYLQMNSLKPEDTAVYYCATAFGFTAKYYYWGQGTQVTVSS | high polyreactivity |
| QVQLVESGGGLVQAGGSLRLSCAASGSIFRYYAMGLYRQAPGKERVLVAAFSGSGGITLYADSVKVRFSISRDNAKNTVYLQMNCLKPEDTAVYFCATRPGTRPAYDYWGQGTQVTVSS | high polyreactivity |
| QVQLVESGGGLVQAGGSLRLSCAASGSIFRYYAMGWYRPAPGKERELVAAISSGGNTKYADSVKGRFTISRDNAKNTVYLQMNSLKPADTAVYYCNAAGKACGDYDYWGQGTQVTVSS | low polyreactivity |
| QVQLVESGGGLVQAGGSLRLSCAASGSIFRYYAMGWYRQAPGKERELVAAISSGDSTNYADSVKGRFTISRDNAKNTVYLQMNSLKPEDTAVYYCAAGVVRGPGYYRKYYYWGQGTQVTVSS | high polyreactivity |
| QVQLVESGGGLVQAGGSLRLSCAASGSIFRYYAMGWYRQAPGKERELVAAITRRGGSTYYADSVKGRFTISRDNAKNTVYLQMNSLKPEDTAVYYCAASHGYQYEYWGQGTQVTVSS | high polyreactivity |
| QVQLVESGGGLVQAGGSLRLSCAASGSIFRYYAMGWYRQAPGKERELVAAITSGGSTSYADSVKGRFTISRDNAKNTVYLQMNSLKPEDTAVYYCAKRSRHNKYYYWGQGTQVTVSS | high polyreactivity |
| QVQLVESGGGLVQAGGSLRLSCAASGSIFRYYDMGWYRQAPGKERELVAAISDSTGTTYYADSVKGRFTISRDNAKNTVYLQMNSLKPEDTAVYYCTAGYDPRYDYWGQGTQVTVSS | high polyreactivity |
| QVQLVESGGGLVQAGGSLRLSCAASGSIFRYYVMGWYRHAPGKERELVAAISGGSTYYADSVKGRFTISRDNAKNTVYLQMNSLKPEDTAVYYCAARGKRRSGGENYAYGYWGQGTQVTVSS | high polyreactivity |
| QVQLVESGGGLVQAGGSLRLSCAASGSIFRYYVMGWYRQAPGKERELVAAISWSGGTTYYADSVKGRFTISRDNAKNTVYLQMNSLKPEDTAVYYCAAKGPLGYYHATDYHDYWGQGTQVTVSS | high polyreactivity |
| QVQLVESGGGLVQAGGSLRLSCAASGSIFSAKTMGWYRQAPGKERELVAAISSSGGRTYYADSVKGRFTISRDHAKNTVYLQMNSLKPEDTAVYYSNARSRYHVTPYSGVTGYDYWGQGTQVTVSS | high polyreactivity |
| QVQLVESGGGLVQAGGSLRLSCAASGSIFSANAMGWYRQAPGKERELVASITGDGSTNYADSVNGRFTISRDNAKNTVYLQMNSLKPEDTAVYYCAVDRGRRGMDYWGQGTQVTVSS | low polyreactivity |
| QVQLVESGGGLVQAGGSLRLSCAASGSIFSAYSMGSYRQAHGKEREFVAAISKSGSSTYYADSVKGRFTISRDNAKNTVYLQMNSLKPEDTAVYYCAAESSSYYGYYIYYYWGQGTQVTVSS | high polyreactivity |

| Sequence | polyreactivity (PSR sort gate) |
| --- | --- |
| QVQLVESGGGLVQAGGSLRLSCAASGSIFSDYAKGWYRQAPVKERELVAVITSGGRTNYADSLKGRFTISRDNAKNTVYLQMNSLKPEDTAVFYWNAYVHSRRVEFNYWGQGTQVTVSS | high polyreactivity |
| QVQLVESGGGLVQAGGSLRLSCAASGSIFSDYAMGWYRQAPGTERELVAAITEGGDSTYYADSVKGRFTISRDNAKNTVYLQMNSLKPEDTAVYSCAAEVYQLFTSPFDYWGQGTQVTVSS | low polyreactivity |
| QVQLVESGGGLVQAGGSLRLSCAASGSIFSENAMGWYRQAPGKERELVADITDGGGSTYYADSVKGRFTISRDNAKNTVYLQMNSLKPEDTAVYYCNAQIFFFAPWYYEYDYWGQGTQVTVSS | low polyreactivity |
| QVQLVESGGGLVQAGGSLRLSCAASGSIFSENTMGWYRQAPGKKRELVADITSGGSTNYADSVKGRFTISRDNAKNTVYLQMNSLKPEDTAVYYCNADWEAYKYNYWGQGTQVTVSS | low polyreactivity |
| QVQLVESGGGLVQAGGSLRLSCAASGSIFSFNAMGWYRPAPGKERELVAAISKSGGRTYYADSVKGRFTISRDNAKNTVYLQMNSLKPEDTAVYYCNVVSYYLYTPGDYWGQGTQVTVSS | high polyreactivity |
| QVQLVESGGGLVQAGGSLRLSCAASGSIFSFNAMGWYRQAPGKERELVAVITRNGGSTYYADSVKGRFTISRDNAKNTVYLQKNSLKPEDTAVYYCAKRLYRHIMGYWGQGTQVTVSS | high polyreactivity |
| QVQLVESGGGLVQAGGSLRLSCAASGSIFSFYAMGWSRQAPGKERELVASISYSGGTTFYADSVKGRFTISRDNAKNTVYLQMNSLKTEDTAVYYSAATCEPPQRGYVKDEFDYWGQVTQVTVSS | low polyreactivity |
| QVQLVESGGGLVQAGGSLRLSCAASGSIFSFYAMGWYRQAPGKERELVASITRRGGSTSYADSVKGRFTISRDNAKNTVYLQMNSLKPEDTAVYYCASESKFISVLRVGYYYVKFDYWGQGTQVTVSS | high polyreactivity |
| QVQLVESGGGLVQAGGSLRLSCAASGSIFSFYTMGWYRQAPGKERELVASISRSGGTTYYADSVKGRFTISRDNAKNTVYLQMNSLKPEDTAVYYCAVRQAKYGGAYYGYYYWGQGTQVTVSS | high polyreactivity |
| QVQLVESGGGLVQAGGSLRLSCAASGSIFSGYDMGWYRQAPGNERELVAVISWSTTSTYYADSVKGRFTISRDNAKNTVYLQMNSLKPEDTAVYYCNAEAYQYWEFDYWGQGSQVTVSS | low polyreactivity |
| QVQLVESGGGLVQAGGSLRLSCAASGSIFSGYMGWYRQAPGKDRELVATITSGGSTYADSVKGRFTISRDNAKNSVYLQMNILKPEDTAVYYCARPRPVIQYSGLHYDYWGQGTEVTVSS | low polyreactivity |
| QVQLVESGGGLVQAGGSLRLSCAASGSIFSGYTMGWYRQAPGKERELVAGISYRGGSTYYADSVKGRFTISRDNAKNTVYLQMNSLKPEDTAVYYCAARHSTLRGYWGQGTQVTVSS | high polyreactivity |
| QVQLVESGGGLVQAGGSLRLSCAASGSIFSGYVMGWYRQAPGKERELVAAITWSGGRTYYADSVKGRFTISRDNAKNTVYLQMNSLKPEDTAVYYCAKRKIKSSGYYYWGQGTQVTVSS | high polyreactivity |
| QVQLVESGGGLVQAGGSLRLSCAASGSIFSINTMGWYRQAPGKERELVAAITRSGSGTYYADSVKGRFTISRDNAKNTVYLQMNSLKPEDTAVYYCAKSTAVKPYAYRESGFIYDYWGQGTQVTVSS | low polyreactivity |
| QVQLVESGGGLVQAGGSLRLSCAASGSIFSINTMGWYRQAPRTERELVATITWSVGSTNYADSVKGRFTISRDNAKNSVYLQMNSLKPVDTAVYYCNAESFYDYNYWGEGTQVTVSS | low polyreactivity |
| QVQLVESGGGLVQAGGSLRLSCAASGSIFSIYAMGWYRQAPGKERDFVASITVTDGSTYYADSVKGRFTISRDIAKNTVYLQMNSLKPEDTAVYYCFADGWYALYEWLAVSGYYWGQGTQVTVST | low polyreactivity |
| QVQLVESGGGLVQAGGSLRLSCAASGSIFSKNAMGWYRQAPGKERELVAAITGGGSTYYADSVKGRFTISRDNAKNTVYLQMNSLKPEDTAVYYCAAEFYVWGQGTQVTVSS | low polyreactivity |
| QVQLVESGGGLVQAGGSLRLSCAASGSIFSKYAMGWYRQAPGKEREFVAAISRSGGRTYYADSVKGRFTISRDNAKNTVYLQMNSLKPEDTAVYYCAAYPYNPRRRTEGDYWGQGTQVTVSS | high polyreactivity |
| QVQLVESGGGLVQAGGSLRLSCAASGSIFSLNAMGWYRQAPGKERELVAAISGRGGSTYYADSVKGRFTISRDNAKNTVYLQMNSLKPEDTAVYYCAARFSRTFLGYYYWGQGTQVTVSS | high polyreactivity |
| QVQLVESGGGLVQAGGSLRLSCAASGSIFSLYAMGWYRQAPGKERELVAAITTSGGRTYYADSVKGRFTISRDNAKNTVYLQMNSLKPVDTAVYYCAKRYSTPYLTDNFLSGPGYYYWGQGTQVTVSS | high polyreactivity |
